target: HLA-A*02:01; experiment: IEDB peptide-MHC binding, purified MHC/competitive/radioactivity; ≥ and ≤ were set here for values at or beyond the usual limits of such assays; conditions: source organism: Influenza A virus

Sequence | IC50
LLFLKVPA | 266 nM

same assay, conditions: source organism: Mammarenavirus brazilense

Sequence | IC50
GLLEWIFRAL | 439 nM
TLFFTTTLFL | 423 nM
GLFQLIFFLT | 1230 nM
GQLFSFFEEV | 33 nM
ALIAVSLIA | 1100 nM

same assay, conditions: source organism: Mammarenavirus choriomeningitidis

Sequence | IC50
SLNQTVHSL | 53 nM
YLISIFLHLV | 5.8 nM

same assay, conditions: source organism: Mammarenavirus juninense

Sequence | IC50
KMKCFGNTAV | 2930 nM
SLFLHLVGI | 1.5 nM
SLIAIIKGIV | 763 nM

same assay, conditions: source organism: Mammarenavirus lassaense

Sequence | IC50
SIISTFHLSI | 714 nM

same assay, conditions: source organism: Mammarenavirus machupoense

Sequence | IC50
MVDEEPAAL | 998 nM
ALLPLSLLFL | 4.7 nM
ALVAVSLIA | 3690 nM
SLIKSTLQV | 248 nM
FLQEALNIA | 6.9 nM
SLLPLSLLFL | 7.3 nM
FLQEALNIAL | 16 nM
AMPGVLSYVI | 2450 nM

same assay, conditions: source organism: Mammarenavirus whitewaterense

Sequence | IC50
NASYITPYV | 263 nM
FTMEWFLSGL | 70 nM
FLLRGPFEA | 11 nM
MINDTHFLL | 265 nM
MIITAVNSLI | 438 nM
GLTDLGLLYT | 102 nM
ALIAVSIISI | 246 nM
TLKSFFAWSL | 1340 nM

same assay, conditions: source organism: Vaccinia virus WR

Sequence | IC50
LVVDNGELM | 3600 nM
ALTIMGVIFL | 180 nM
AASSTHRKV | 2640 nM
LMGTITLNA | 173 nM
SQEVRKYFCV | 1200 nM
YVLLHLLVV | 101 nM
KLTFLDVEV | 93 nM
NAPIKTFML | 3410 nM
YLFGGFSTL | 0.87 nM
RLKSSQTIEL | 338 nM
KTITTCYLM | 445 nM
ELQKFSFKI | 167 nM
VLMEAQQGI | 7.1 nM
SVVVPIKFIA | 4060 nM
SIDIETESV | 235 nM
EQEFLTAAL | 17 nM
VMNNLSELT | 2080 nM
NVFETRIVM | 2640 nM
TTLSRHIFMA | 399 nM
TLYDFDYYI | 0.18 nM
YLPKQPEGVI | 279 nM
SMICLSLILA | 101 nM
IVIGVIILA | 664 nM
MLYFAGGLSV | 0.35 nM

Sequence | IC50
AIYSAILLLV | 53 nM
GLYCYFTHL | 5.4 nM
ELVFIKPPLI | 3300 nM
KLFTDNNFL | 2 nM
NLVKWPLLNI | 146 nM
ILYAAFLWL | 112 nM
YVTKKNNNI | 505 nM
GTGYYKYFI | 1650 nM
IMLNGIMYRL | 14 nM
LLLLLFHSYA | 9.7 nM
AVKDKNWTV | 1810 nM
YIIRVTTEL | 36 nM
SISVVFSTNL | 2890 nM
MLFVNDLMT | 747 nM
YMMGIEYGL | 0.12 nM
NLPEDIKRV | 151 nM
FTLIDIWFL | 0.49 nM
FLPIIFDAFL | 0.22 nM
MLLALVALV | 0.42 nM
AVVYSTCTV | 104 nM
GLDVKNVQL | 278 nM
PLGILSNYV | 2710 nM
MITMSAFLIV | 386 nM
GLKKIIQRV | 1700 nM

Sequence | IC50
NVYPGVWNT | 830 nM
KLMGTITLNA | 12 nM
MLFVNDLMTM | 51 nM
FIDTVSVYT | 231 nM
RTLLPILLL | 307 nM
FILHRLHEI | 0.65 nM
QTANVVFRYM | 729 nM
MLNFSIYSV | 0.15 nM
CMAFTIPSI | 0.9 nM
NIIDWQFAI | 5.4 nM
CLCSFHNDA | 4140 nM
IAMENLKAML | 674 nM
LLNLLLWPL | 0.073 nM
NMNYSDDYMM | 2640 nM
KLTDKKTFII | 4390 nM
KLGNLLLLI | 0.43 nM
ILWFFNAMVL | 11 nM
TLDTAIFTDA | 50 nM
LISLTNEIYA | 1220 nM
SLLDEDSKI | 99 nM
RLESYHRFDM | 3330 nM
SQYANCSSI | 81 nM
SMSSYDFST | 0.34 nM
QLYLTVSFI | 3280 nM

Sequence | IC50
CLKDIIDFL | 671 nM
LIAFSSGTV | 1810 nM
KILAIIFLVL | 383 nM
FTGITLFLL | 130 nM
FMAYTTSHI | 3.2 nM
VMTPSPFYTV | 26 nM
YQLFSDAKA | 1790 nM
KLLISKGIEI | 132 nM
RLSLNRTIV | 849 nM
NLVKLSSYHV | 1420 nM
YMNYYTTYI | 1.1 nM
KLYTIVSTL | 15 nM
AIIGLCAYA | 81 nM
YLDDHRYLFI | 12 nM
IMFKDDNII | 235 nM
ILAIIFLVL | 131 nM
FLKIKVTAA | 52 nM
GILSNYVKTL | 312 nM
AMTAFFGEL | 50 nM
VIVIYIFTV | 104 nM
DAIIDIEPDL | 2270 nM
LAALFMYYA | 52 nM
NLPSSENYM | 135 nM
FICWHSSEI | 53 nM

Sequence | IC50
LLSSVDYKNI | 908 nM
GTINRILVIT | 1230 nM
RIPNSLHSL | 670 nM
FLYNVYPGA | 1.3 nM
IIDKDTNSV | 62 nM
KLFFAKCLVV | 2.3 nM
FLKDVMVEI | 3 nM
MISRHCCIL | 1030 nM
LLEIHQYPA | 98 nM
RVNVFETRI | 1960 nM
FMQRIISLSV | 1.8 nM
MASPENVIL | 846 nM
STFIMLEGET | 3480 nM
YLIKLIEPV | 8 nM
LLISMYCSKT | 1150 nM
IIDKDTNSVT | 2800 nM
FLAVLSPTI | 0.66 nM
VLPAVVYST | 113 nM
ILYLYETYHL | 9 nM
VIHDYICWL | 12 nM
KIIKKMEDMV | 2670 nM
KIFIDNIYIV | 522 nM
LTFNFTPKI | 251 nM
YLTAIQDFI | 1.9 nM

Sequence | IC50
QAKTKNFTI | 3800 nM
VLITMLSIIL | 124 nM
YLIHDNIMYT | 1.3 nM
LQISQCQRI | 1370 nM
MMWDLKKKGL | 103 nM
LLSLLVIWI | 148 nM
LITWLIDYV | 71 nM
FVIVIYIFTV | 122 nM
RLIVLFEVFV | 103 nM
FLTLLGIGCV | 0.29 nM
KMIPLLFIL | 2.9 nM
CMSANEAAI | 16 nM
YMSFWCKSI | 26 nM
QLVWENFLA | 22 nM
NIVWEKKSLV | 63 nM
GLDLENLYA | 117 nM
FVNDLMTMNI | 178 nM
SLNRTIVTKV | 67 nM
FMYIESIKV | 1.3 nM
GLIKKPYRSI | 848 nM
FIKQGFNNLV | 119 nM
QTCAGVIEYA | 359 nM
KLYLVDYGLV | 20 nM
CQQKCDMPSL | 2370 nM

Sequence | IC50
KMCTVSDYI | 36 nM
LTNVVNIST | 3980 nM
IVFNLPVSKV | 53 nM
SMMNRDKIPI | 1360 nM
SLLRKFLYCI | 338 nM
LILSCIFAFI | 18 nM
FMASPENVI | 13 nM
PLLNIGIVL | 1420 nM
MVISLLSMI | 155 nM
FTTTSEVVDM | 1890 nM
TAKSSFVCGI | 1130 nM
FTFSNVCESV | 2.4 nM
KLVDICDRIV | 32 nM
ILTLDIFYL | 1.3 nM
LIQEIVHEV | 33 nM
LISGSTFSI | 496 nM
DMIDNLNIV | 2360 nM
LLFILFYFA | 85 nM
KLMIYGLPWM | 11 nM
MTFGDIPLV | 0.98 nM
ILLTLRMTQL | 366 nM
VTMVDKPTEL | 3360 nM
QMTSTFIML | 420 nM
MLNGIMYRL | 0.35 nM

Sequence | IC50
MLPKQDIVGL | 96 nM
FLIDLAFLI | 0.041 nM
LLFFLALSI | 26 nM
IIFGESSIFV | 1.3 nM
TIGNQLYLTV | 18 nM
KLRPNSFWFV | 2 nM
LMSNIKTMMI | 1560 nM
LLMTSLQYA | 2.5 nM
ALQNVMISI | 440 nM
RLHKECLLRL | 447 nM
AIIPLSASV | 14 nM
RIDKTMKYI | 2660 nM
GMLFVNDLM | 467 nM
FILIFNIIV | 3.2 nM
LLHVFQEYRL | 27 nM
AIIAIVFVFI | 940 nM
NTSWNDTVT | 146 nM
FIEHLGEGI | 4820 nM
YTDEVYDYL | 21 nM
ALMRRIAVV | 1.8 nM
AVTKTDGIPI | 1460 nM
LVDICDRIV | 2140 nM
TIMGVIFLI | 9.6 nM
ALIANIHNHM | 118 nM

Sequence | IC50
IVIEAIHTV | 1410 nM
HISIKVKNHI | 280 nM
RTSQKGTVA | 765 nM
GLCIRISMVI | 2040 nM
VLLTYFCFV | 0.28 nM
KIFYKHIHKI | 539 nM
FIYLLFASM | 173 nM
NMQTVKLFV | 12 nM
MVNTVLITV | 121 nM
RLVDFFPDI | 0.14 nM
ILLLIGICVA | 683 nM
TIDFKLKYFL | 3030 nM
SLDSLVHLL | 3.3 nM
FLKYSRSKPA | 3540 nM
VMISILNPV | 33 nM
RTVIHLEWL | 514 nM
SMFLMTATL | 2.3 nM
RTFLIDLAFL | 6.6 nM
KLITSAFDLL | 457 nM
DASLMDMITL | 206 nM
FLIPKGFYA | 0.82 nM
YLNTNKLFFA | 9.9 nM
YLVIYLNRT | 819 nM
SVCNSLSQI | 1510 nM

Sequence | IC50
SMITMSAFL | 20 nM
LLSKNTFYL | 3.1 nM
AMFTAALNI | 2.4 nM
VTINNLKMML | 3060 nM
PLLFILFYFA | 42 nM
IILVIIVVI | 418 nM
EILGIAHLL | 4330 nM
GLDVKNVQLV | 313 nM
ALATFTVNI | 0.6 nM
SLEATYHII | 762 nM
AIFTDASTV | 697 nM
TINCDVGYEV | 385 nM
TLLCVLPAV | 1 nM
CTANSWNVI | 794 nM
FLSRVFFCV | 0.81 nM
LAKAIITPVV | 2360 nM

Reference: the Immune Epitope Database (IEDB)
